Test results reported in IntAct's records for PubMed 18084303.

B1: Neuroligin-1 (Mus musculus), Q99K10-1 (parent)
chain: MALPRCMWPNYVWRAMMACVVHRGSGAPLTLCLLGCLLQTFHVLSQKLDDVDPLVTTNFGKIRGIKKELNNEILGPVIQFLGVPYAAPPTGEHRFQPPEPPSPWSDIRNATQFAPVCPQNIIDGRLPEVMLPVWFTNNLDVVSSYVQDQSEDCLYLNIYVPTEDGPLTKKHTDDLGDNDGAEDEDIRDSGGPKPVMVYIHGGSYMEGTGNLYDGSVLASYGNVIVITVNYRLGVLGFLSTGDQAAKGNYGLLDLIQALRWTSENIGFFGGDPLRITVFGSGAGGSCVNLLTLSHYSEGNRWSNSTKGLFQRAIAQSGTALSSWAVSFQPAKYARILATKVGCNVSDTVELVECLQKKPYKELVDQDVQPARYHIAFGPVIDGDVIPDDPQILMEQGEFLNYDIMLGVNQGEGLKFVENIVDSDDGVSASDFDFAVSNFVDNLYGYPEGKDVLRETIKFMYTDWADRHNPETRRKTLLALFTDHQWVAPAVATADLHSNFGSPTYFYAFYHHCQTDQVPAWADAAHGDEVPYVLGIPMIGPTELFPCNFSKNDVMLSAVVMTYWTNFAKTGDPNQPVPQDTKFIHTKPNRFEEVAWTRYSQKDQLYLHIGLKPRVKEHYRANKVNLWLELVPHLHNLNDISQYTSTTTKVPSTDITLRPTRKNSTPVTSAFPTAKQDDPKQQPSPFSVDQRDYSTELSVTIAVGASLLFLNILAFAALYYKKDKRRHDVHRRCSPQRTTTNDLTHAPEEEIMSLQMKHTDLDHECESIHPHEVVLRTACPPDYTLAMRRSPDDIPLMTPNTITMIPNTIPGIQPLHTFNTFTGGQNNTLPHPHPHPHSHSTTRV

Variants of: B1
Conditions: with NRXN1, P58400-1
Sequence of NRXN1, P58400-1 (P58400 other isoform, or with tags, fused parts or gaps): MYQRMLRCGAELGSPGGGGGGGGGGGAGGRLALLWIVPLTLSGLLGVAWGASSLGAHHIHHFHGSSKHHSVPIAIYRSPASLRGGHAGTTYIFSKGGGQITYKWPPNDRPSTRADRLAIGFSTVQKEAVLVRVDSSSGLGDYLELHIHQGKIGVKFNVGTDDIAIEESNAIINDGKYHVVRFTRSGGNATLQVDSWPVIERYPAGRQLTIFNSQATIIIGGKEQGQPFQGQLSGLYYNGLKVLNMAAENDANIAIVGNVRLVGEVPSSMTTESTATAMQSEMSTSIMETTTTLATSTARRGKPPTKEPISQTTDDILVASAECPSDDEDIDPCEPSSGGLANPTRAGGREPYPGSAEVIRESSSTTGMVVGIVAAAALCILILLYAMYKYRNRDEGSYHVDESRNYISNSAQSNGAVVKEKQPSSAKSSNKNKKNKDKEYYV

effect of a mutation on the interaction	Variant
disrupting interaction	E397A
disrupting interaction	N400A
